The values below come from paper PMC3933668, “The phzA2-G2 Transcript Exhibits Direct RsmA-Mediated Activation in Pseudomonas aeruginosa M18”.

Series [1] concerns the target T1, RsmA (Pseudomonas aeruginosa M18, UniProt O69078 1-61). In words: SPR; biotin-RNA on SA chip; 200 mM NaCl, 20 mM Tris-HCl pH 8.0, 1 mM EDTA, 1 mM DTT; 25 C; EMSA: 200 mM KCl, 100 mM HEPES pH 7.3, 10 mM MgCl2, 2 ug tRNA, 5% glycerol, 10 mM DTT, room temp 30 min, 1 nM RNA; SPR: 200 mM NaCl, 20 mM Tris-HCl pH 8.0, 1 mM EDTA, 1 mM DTT, 25 C. As to conditions: protein: recombinant; tags: C-terminal His tag; chain copies: 2; label: 3' biotin.

The target of series [2] is T1, RsmA. In words: EMSA; RsmA 0-400 nM; EMSA: 200 mM KCl, 100 mM HEPES pH 7.3, 10 mM MgCl2, 2 ug tRNA, 5% glycerol, 10 mM DTT, room temp 30 min, 1 nM RNA; SPR: 200 mM NaCl, 20 mM Tris-HCl pH 8.0, 1 mM EDTA, 1 mM DTT, 25 C. The conditions noted are these: protein: recombinant; tags: C-terminal His tag; chain copies: 2; label: 3' biotin. A general note: Mobility shift assays separate free from complexed probe on a gel.

T1 sequence (O69078 whole entry): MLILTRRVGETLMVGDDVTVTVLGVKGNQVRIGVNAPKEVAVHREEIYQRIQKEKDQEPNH

As to UCUUCUUUCCGGUAUGGAUGCCAGUCGAUUC (ssRNA) [phz2-S3], the Kd with RsmA [1] is 54.5 nM. With UCUUCUUUCCGGUAUUUCUGCCAGUCGAUUC (ssRNA) [phz2-S3M], in the series with RsmA [2], the binding result is on record as “no binding”.

For GGCAAUUCGGCAUUAGUUGAAACUUUGGAGACGCUCCGAA (ssRNA) [phz2-S1], the binding result with RsmA [2] is “no binding”. Consider GGGCAACUUUUGCCCGGAAAAAGCUUCACGGCAAUUUCUC (ssRNA) [phz2-S2], for which, in the series with RsmA [2], the binding result is reported as “no binding”.

One may read the Kd as the equilibrium constant for the complex coming apart.
